Laboratory results: publication PMC4537050 (2015)

T1: Human recombinant FGF8b (fibroblast growth factor-8b) (human)
T1 chain: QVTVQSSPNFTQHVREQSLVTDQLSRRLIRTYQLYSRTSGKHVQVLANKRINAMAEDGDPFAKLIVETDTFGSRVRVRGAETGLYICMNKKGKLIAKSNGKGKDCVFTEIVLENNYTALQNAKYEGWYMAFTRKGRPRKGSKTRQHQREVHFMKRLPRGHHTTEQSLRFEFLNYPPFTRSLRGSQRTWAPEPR


Target: T1, Human recombinant FGF8b (fibroblast …)
Experiment: SPR

| Binder | Kd [µM] |
| --- | --- |
| Ac-ARGCA-NH2 [Ac-ARGCA-NH2] | > 3000 |
| Ac-APCRA-NH2 [Ac-APCRA-NH2, partially scrambled peptide] | > 3000 |
| Ac-GRPCG-NH2 [Ac-GRPCG-NH2] | > 3000 |
| Ac-ARACA-NH2 [Ac-ARACA-NH2] | > 3000 |
| Ac-ARPMA-NH2 [Ac-ARPMA-NH2] | > 3000 |
| Ac-ARPCG-NH2 [Ac-ARPCG-NH2] | 1900 |
| H-ARPCA-NH2 [H-ARPCA-NH2, non-acetylated peptide] | 2900 |
